Where two headings read alike, the source gives them in different places.
Key:
[1] = target: T1, human CD3 epsilon on cells (human, UniProt P07766 23-207); test: FACS staining of HPB-ALL cells, human IgG1 format, graded relative to chimeric OKT3
T1 construct: whole, on cells; On cells it stands in the CD3/TCR complex; also called HPB-ALL cells (human CD3 epsilon positive T cell tumour line); CD3 on human T cells
Method: (§1) HPB-ALL cells (DSMZ, Braunschweig, Germany, Cat. No: ACC483) were used as CD3 positive cell line for FACS staining. […] After washing, cells were incubated with a 1/200 dilution of anti-Human Fc-PE (EBioscience, Vienna, Austria) for 45 min on ice. Cells were then washed again and resuspended in 200 ul FACS buffer.

[2] = target: T1, human CD3 epsilon on cells; test: as above; remark: listed apart in the source
Method: as §1

[3] = target: T2, cynomolgus monkey CD3 epsilon 1-26_Fc fusion protein (cynomolgus monkey); test: SPR, human IgG1 format, graded relative to chimeric SP34; one grade for human and cynomolgus protein
T2 construct: also called cynomolgus CD3 epsilon 1-26 Fc fusion protein

[4] = target: T3, human CD3 epsilon 1-26_Fc fusion protein (human); test: as above
T3 construct: also called human CD3 1-26_Fc fusion protein

[5] = target: T4, soluble extracellular region of human CD38 fused to a 6-His-tag (human, UniProt P28907 43-300); test: SPR, antibody captured on protein G, CD38 injected
T4 construct: Expressed with the murine VJ2C leader; also called human CD38 protein; human CD38 antigen

[6] = target: T4, soluble extracellular region of human …; test: SPR
[7] = target: T5, soluble extracellular region of cynomolgus monkey CD38 antigen fused to a 6-His-tag (cynomolgus monkey, UniProt Q5VAN0 45-301); test: SPR
T5 construct: also called cynomolgus CD38

Row | binding result [1] | binding result [2] | Binder | also measured
1 | binds | – | VH5/VL3 (antibody, human IgG1, kappa, V domains shown, human IgG1; also called humanized OKT3 VH5/VL3 antibody; copies: 2 + 2) VH: EVQLVESGGGLVQPGGSLRLSCAASGYTFTRYTMHWVRQAPGKGLEWVGYINPSRGYTRYADSVKGRFTLSTDKSKNTAYLQMNSLRAEDTAVYYCARYYDDHYCLDYWGQGTLVTVSS VL: DIQLTQSPSSLSASVGDRVTITCRASSSVSYVAWYQQKPGKAPKLLIYDTSKLYSGVPSRFSGSRSGTDYTLTISSLQPEDFATYYCQQWSSNPPTFGQGTKVEIKR | –
2 | – | binds | VH10/VL8 (antibody, human IgG1, kappa, V domains shown, human IgG1; also called humanized OKT3 VH10/VL8 antibody; copies: 2 + 2) VH: EVQLVESGGGLVQPGGSLRLSCAASGYTFTRYTMHWVRQAPGKGLEWIGYINPSRGYTYYADSVKSRATLSTDKSKNTAYLQMNSLRAEDTAVYYCARYYDDHYCLDYWGQGTLVTVSS VL: DIQLTQSPSSLSASVGDRVTITCRASSSVSYVAWYQQKPGKAPKRWIYDTSKLYSGVPSRFSGSGSGTDYTLTISSLQPEDFATYYCQQWSSNPPTFGQGTKVEIKR | –
3 | binds | – | VH5/VL6 (antibody, human IgG1, kappa, V domains shown, human IgG1; also called humanized OKT3 VH5/VL6 antibody; copies: 2 + 2) VH: EVQLVESGGGLVQPGGSLRLSCAASGYTFTRYTMHWVRQAPGKGLEWVGYINPSRGYTRYADSVKGRFTLSTDKSKNTAYLQMNSLRAEDTAVYYCARYYDDHYCLDYWGQGTLVTVSS VL: DIQLTQSPSSLSASVGDRVTITCRASSSVSYVAWYQQKPGKAPKRWIYDTSKLYSGVPSRFSGSRSGTDYTLTISSLQPEDFATYYCQQWSSNPFTFGQGTKVEIKR | –
4 | binds | – | VH6/VL5 (antibody, human IgG1, kappa, V domains shown, human IgG1; also called humanized OKT3 VH6/VL5 antibody; copies: 2 + 2) VH: EVQLVESGGGLVQPGGSLRLSCAASGYTFTRYTMHWVRQAPGKGLEWIGYINPSRGYTRYADSVKGRFTLSTDKSKNTAYLQMNSLRAEDTAVYYCARYYDDHYCLDYWGQGTLVTVSS VL: DIQLTQSPSSLSASVGDRVTITCRASSSVSYMNWYQQKPGKAPKLLIYDTSKLYSGVPSRFSGSRSGTDYTLTISSLQPEDFATYYCQQWSSNPPTFGQGTKVEIKR | –
5 | – | binds | humanized OKT3 VH8/VL4 antibody (antibody, human IgG1, V domains shown, Human IgG1; copies: 2 + 2) VH: EVQLVESGGGLVQPGGSLRLSCAASGYTFTRYTMHWVRQAPGKGLEWIGYINPSRGYTYYADSVKGRFTLSTDKSKNTAYLQMNSLRAEDTAVYYCARYYDDHYCLDYWGQGTLVTVSS VL: DIQLTQSPSSLSASVGDRVTITCRASSSVSYVAWYQQKPGKAPKRWIYDTSKLYSGVPSRFSGSRSGTDYTLTISSLQPEDFATYYCQQWSSNPPTFGQGTKVEIKR | –
6 | – | binds | humanized OKT3 VH11/VL4 antibody (antibody, human IgG1, V domains shown, Human IgG1; copies: 2 + 2) VH: EVQLVESGGGLVQPGGSLRLSCAASGYTFTRYTMHWVRQAPGKGLEWIGYINPSRGYTYYADSVKGRFTLSTDKSKNTAYLQMSSLRAEDTAVYYCARYYDDHYCLDYWGQGTLVTVSS VL: DIQLTQSPSSLSASVGDRVTITCRASSSVSYVAWYQQKPGKAPKRWIYDTSKLYSGVPSRFSGSRSGTDYTLTISSLQPEDFATYYCQQWSSNPPTFGQGTKVEIKR | –
7 | binds | – | VH6/VL4 (antibody, human IgG1, kappa, V domains shown, human IgG1; also called humanized OKT3 VH6/VL4 antibody; copies: 2 + 2) VH: EVQLVESGGGLVQPGGSLRLSCAASGYTFTRYTMHWVRQAPGKGLEWIGYINPSRGYTRYADSVKGRFTLSTDKSKNTAYLQMNSLRAEDTAVYYCARYYDDHYCLDYWGQGTLVTVSS VL: DIQLTQSPSSLSASVGDRVTITCRASSSVSYVAWYQQKPGKAPKRWIYDTSKLYSGVPSRFSGSRSGTDYTLTISSLQPEDFATYYCQQWSSNPPTFGQGTKVEIKR | –
8 | binds | – | VH5/VL4 (antibody, human IgG1, kappa, V domains shown, human IgG1; also called humanized OKT3 VH5/VL4 antibody; copies: 2 + 2) VH: EVQLVESGGGLVQPGGSLRLSCAASGYTFTRYTMHWVRQAPGKGLEWVGYINPSRGYTRYADSVKGRFTLSTDKSKNTAYLQMNSLRAEDTAVYYCARYYDDHYCLDYWGQGTLVTVSS VL: DIQLTQSPSSLSASVGDRVTITCRASSSVSYVAWYQQKPGKAPKRWIYDTSKLYSGVPSRFSGSRSGTDYTLTISSLQPEDFATYYCQQWSSNPPTFGQGTKVEIKR | –
9 | binds | – | VH6/VL6 (antibody, human IgG1, kappa, V domains shown, human IgG1; also called humanized OKT3 VH6/VL6 antibody; copies: 2 + 2) VH: EVQLVESGGGLVQPGGSLRLSCAASGYTFTRYTMHWVRQAPGKGLEWIGYINPSRGYTRYADSVKGRFTLSTDKSKNTAYLQMNSLRAEDTAVYYCARYYDDHYCLDYWGQGTLVTVSS VL: DIQLTQSPSSLSASVGDRVTITCRASSSVSYVAWYQQKPGKAPKRWIYDTSKLYSGVPSRFSGSRSGTDYTLTISSLQPEDFATYYCQQWSSNPFTFGQGTKVEIKR | –
10 | – | binds | VH6/VL8 (antibody, human IgG1, kappa, V domains shown, human IgG1; also called humanized OKT3 VH6/VL8 antibody; copies: 2 + 2) VH: EVQLVESGGGLVQPGGSLRLSCAASGYTFTRYTMHWVRQAPGKGLEWIGYINPSRGYTRYADSVKGRFTLSTDKSKNTAYLQMNSLRAEDTAVYYCARYYDDHYCLDYWGQGTLVTVSS VL: DIQLTQSPSSLSASVGDRVTITCRASSSVSYVAWYQQKPGKAPKRWIYDTSKLYSGVPSRFSGSGSGTDYTLTISSLQPEDFATYYCQQWSSNPPTFGQGTKVEIKR | –
11 | – | binds | VH9/VL8 (antibody, human IgG1, kappa, V domains shown, human IgG1; also called humanized OKT3 VH9/VL8 antibody; copies: 2 + 2) VH: EVQLVESGGGLVQPGGSLRLSCAASGYTFTRYTMHWVRQAPGKGLEWIGYINPSRGYTYYADSVKSRFTLSTDKSKNTAYLQMNSLRAEDTAVYYCARYYDDHYCLDYWGQGTLVTVSS VL: DIQLTQSPSSLSASVGDRVTITCRASSSVSYVAWYQQKPGKAPKRWIYDTSKLYSGVPSRFSGSGSGTDYTLTISSLQPEDFATYYCQQWSSNPPTFGQGTKVEIKR | –
12 | – | binds | VH7/VL4 (antibody, human IgG1, kappa, V domains shown, human IgG1; also called humanized OKT3 VH7/VL4 antibody; copies: 2 + 2) VH: EVQLVESGGGLVQPGGSLRLSCAASGYTFTRYTMHWVRQAPGKGLEWVGYINPSRGYTNYADSVKGRFTLSTDKSKNTAYLQMNSLRAEDTAVYYCARYYDDHYCLDYWGQGTLVTVSS VL: DIQLTQSPSSLSASVGDRVTITCRASSSVSYVAWYQQKPGKAPKRWIYDTSKLYSGVPSRFSGSRSGTDYTLTISSLQPEDFATYYCQQWSSNPPTFGQGTKVEIKR | –
13 | – | binds | VH10/VL4 (antibody, human IgG1, kappa, V domains shown, human IgG1; also called humanized OKT3 VH10/VL4 antibody; copies: 2 + 2) VH: EVQLVESGGGLVQPGGSLRLSCAASGYTFTRYTMHWVRQAPGKGLEWIGYINPSRGYTYYADSVKSRATLSTDKSKNTAYLQMNSLRAEDTAVYYCARYYDDHYCLDYWGQGTLVTVSS VL: DIQLTQSPSSLSASVGDRVTITCRASSSVSYVAWYQQKPGKAPKRWIYDTSKLYSGVPSRFSGSRSGTDYTLTISSLQPEDFATYYCQQWSSNPPTFGQGTKVEIKR | –
14 | – | – | VH1/VL3 (antibody, IgG1; SP34 series; also called humanized SP34 VH1/VL3 antibody; copies: 2 + 2) heavy: not shown light: EAVVTQSATLSVSPGERATLSCRSSTGAVTTSNYANWVQEKPGQAFRGLIGGANKRAPGVPARFSGSLSGDEATLTISSLQSEDFAVYFCQLWYSNLWVFGQGTKLEIKRTVAAPSVFIFPPSDEQLKSGTASVVCLLNNFYPREAKVQWKVDNALQSGNSQESVTEQDSKDSTYSLSSTLTLSKADYEKHKVYACEVTHQGLSSPVTKSFNRGEC | binding result [3]: no binding (tested: not printed); binding result [4]: no binding (tested: not printed)
15 | – | – | chimeric HB-7 antibody (antibody, human IgG1, kappa, V domains shown) VH: KVQLQESGPSLVQPSQRLSITCTVSGFSLISYGVHWVRQSPGKGLEWLGVIWRGGSTDYNAAFMSRLSITKDNSKSQVFFKMNSLQADDTAIYFCAKTLITTGYAMDYWGQGTTVTVSS VL: DIELTQSPSSFSVSLGDRVTITCKASEDIYNRLAWYQQKPGNAPRLLISGATSLETGVPSRFSGSGSGKDYTLSITSLQTEDVATYYCQQYWSTPTFGGGTKLEIKR | Kd [5]: 2.5 nM
16 | – | – | humanized HB-7 best-fit antibody (antibody, human IgG1, kappa, V domains shown, Human IgG1 format) VH: QVQLQESGPGLVKPSETLSLTCTVSGFSLISYGVHWVRQPPGKGLEWLGVIWRGGSTDYNAAFMSRLTISKDNSKNQVSLKLSSVTAADTAVYFCAKTLITTGYAMDYWGQGTLVTVSS VL: DIQLTQSPSSLSASVGDRVTITCRASEDIYNRLAWYQQKPGKAPKLLISGATSLETGVPSRFSGSGSGKDYTLTISSLQPEDFATYYCQQYWSTPTFGQGTKLEIKR | Kd [5]: 3.6 nM
17 | – | – | humanized 9G7 best-fit antibody (antibody, human IgG1, kappa, V domains shown, Human IgG1; light chain carries the F36Y back mutation (Kabat); also called 9G7 best-fit F36Y humanized variant) VH: QVTLKESGPTLVKPTQTLTLTCTFSGLSLSTSGKGVGWIRQPPGKALEWLAHIWWDDDKRYNPALKSRLTITKDTSKNQVVLTMTNMDPVDTATYYCARIELGRSYVMDYWGQGTLVTVSS VL: DIQMTQSPSSLSASVGDRVTITCQASQDVITSVAWYQQKPGKAPKLLIYSASYRYTGVPSRFSGSGSGTDFTFTISSLQPEDIATYYCQQHYTIPLTFGQGTKLEIKR | Kd [5]: 0.5 nM; fold improvement of affinity over the first prototype [6]: 2 fold; Kd [7]: 3.2 nM
18 | – | – | humanized 9G7 best-framework antibody (antibody, human IgG1, kappa, V domains shown, Human IgG1) VH: EVQLVESGGGLVQPGGSLRLSCAFSGLSLSTSGKGVGWIRQAPGKGLEWLAHIWWDDDKRYNPALKSRLTISKDTSKNTVYLQMNSLRAEDTAVYYCARIELGRSYVMDYWGQGTLVTVSS VL: DIQMTQSPSSLSASVGDRVTITCRASQDVITSVAWFQQKPGKAPKLLIYSASYRYTGVPSRFSGSGSGTDFTLTISSLQPEDFATYYCQQHYTIPLTFGQGTKVEIKR | Kd [5]: 0.4 nM; Kd [7]: 1 nM
19 | – | – | first humanized 9G7 antibody prototype (best-fit approach, post CDR grafting) (antibody, human IgG1, kappa, V domains shown, Human IgG1 isotype; also called first antibody prototype; first humanized prototype) VH: QVTLKESGPTLVKPTQTLTLTCTFSGLSLSTSGKGVGWIRQPPGKALEWLAHIWWDDDKRYNPALKSRLTITKDTSKNQVVLTMTNMDPVDTATYYCARIELGRSYVMDYWGQGTLVTVSS VL: DIQMTQSPSSLSASVGDRVTITCQASQDVITSVAWFQQKPGKAPKLLIYSASYRYTGVPSRFSGSGSGTDFTFTISSLQPEDIATYYCQQHYTIPLTFGQGTKLEIKR | Kd [6]: 1 nM; fold lower binding than the mouse parental antibody [6]: 3 fold
